In patent US11395853B2, “Biomimetic drug delivery of an immunomodulatory agent for the treatment of ocular conditions” (University of Pittsburgh-Of the Commonwealth System of …, priority 2016, dated 2022):

Legend:
[1] = tested on: ConA-induced DED mice; assay: Corneal permeability, corneal fluorescein staining score, ConA-induced DED (Example 1); assay type: in vivo, Balb/c mice; conditions: one week after ConA into lacrimal gland; MPs or soluble CCL22 co-injected with ConA; anti-GITR 500 μg i.p. 5 days prior
Procedure: (§1) Fabrication of Microparticles—Poly (lactic-co-glycolic) acid (PLGA) microparticles encapsulating recombinant mouse CCL22 (R&D Systems, Minneapolis Minn.) were made according to a previously reported water-oil-water double emulsion technique. Glowacki, A. J. et al. Proc. Natl. Acad. Sci. U.S.A 110, 18525-30 (2013). Briefly, 200 mg of RG502H poly(D,L-lactide-co-glycolide) polymer (Sigma Aldrich, St. Louis, Mo.) was dissolved in 4 ml of dichloromethane and vortexed. Then […], of an aqueous solution containing 5 μg of recombinant mouse CCL22 and 2 mg of BSA (Sigma Aldrich, St. Louis, Mo.) with […] NaCl was pipetted into the mixture of polymer and dichloromethane. […] Release media (supernatant) was sampled periodically and CCL22 concentrations were quantified using an enzyme-linked immunosorbent assay (ELISA) (R&D Systems, Minneapolis, Minn.). […] Measurement of Tear Production—Aqueous tear production was measured with phenol red cotton threads (Oasis Medical, San Dimas, Calif.). Thread was placed in the lateral canthus of the eye for a period of 60 seconds, and wetting was measured in millimeters using a dissecting microscope (Olympus SZX10, Waltham, Mass.). […] The surface of the cornea was evaluated using a dissecting microscope with a fluorescent excitation lamp (Olympus SZX10, Waltham, Mass.). […]

[2] = tested on: ConA-induced DED mice; assay: Aqueous tear production, phenol red cotton thread, ConA-induced DED (Example 1); assay type: in vivo, Balb/c mice; conditions: one week after ConA into lacrimal gland; MPs 0.5 mg/20 μl co-injected with ConA; soluble CCL22 2.5 μg in 20 μl; anti-GITR 500 μg i.p. 5 days prior
Procedure: as §1

B1: Soluble CCL22: recombinant mouse CCL22 chemokine injected in solution with ConA at 2.5 μg in 20 μl (protein, UniProt O88430 25-92, looked up)
C-C motif chemokine 22: GPYGANVEDSICCQDYIRHPLPSRLVKEFFWTSKSCRKPGVVLITVKNRDICADPRQVWVKKLLHKLS
- corneal fluorescein staining (corneal permeability) [1]: central punctate fluorescein staining was observed
- aqueous tear production [2]: unable to prevent loss of tear production
